B1: Human Notch1 intracellular domain (NICD) (residues 2280-2550) (domain or fragment, UniProt P46531 2280-2550, looked up)
chain: SGTSTVLGSSSGGALNFTVGGSTSLNGQCEWLSRLQSGMVPNQYNPLRGSVAPGPLSTQAPSLQHGMVGPLHSSLAASALSQMMSYQGLPSTRLATQPHLVQTQQVQPQNLQMQQQNLQPANIQQQQSLQPPPPPPQPHLGVSSAASGHLGRSFLSGEPSQADVQPLGPSSLAVHTILPQESPALPTSLPSSLVPPVTAAQFLTPPSQHSYSSPVDNTPSHQLQVPEHPFLTPSPESPDQWSSSSPHSNVSDWSEGVSSPPTSMQSQIARI
B2: Human Dlk2 extracellular domain (Dlk2EC, residues 1-306) (domain or fragment, UniProt Q6UY11 27-306, looked up)
chain: DDCSSHCDLAHGCCAPDGSCRCDPGWEGLHCERCVRMPGCQHGTCHQPWQCICHSGWAGKFCDKDEHICTTQSPCQNGGQCMYDGGGEYHCVCLPGFHGRDCERKAGPCEQAGSPCRNGGQCQDDQGFALNFTCRCLVGFVGARCEVNVDDCLMRPCANGATCLDGINRFSCLCPEGFAGRFCTINLDDCASRPCQRGARCRDRVHDFDCLCPSGYGGKTCELVLPVPDPPTTVDTPLGPTSAVVVPATGPAPHSAGAGLLRISVKEVVRRQEAGLGEPS

Key:
[1] = target: T1, Human Numb full-length (human, UniProt P49757 1-651); assay: SPR
T1 sequence (looked up): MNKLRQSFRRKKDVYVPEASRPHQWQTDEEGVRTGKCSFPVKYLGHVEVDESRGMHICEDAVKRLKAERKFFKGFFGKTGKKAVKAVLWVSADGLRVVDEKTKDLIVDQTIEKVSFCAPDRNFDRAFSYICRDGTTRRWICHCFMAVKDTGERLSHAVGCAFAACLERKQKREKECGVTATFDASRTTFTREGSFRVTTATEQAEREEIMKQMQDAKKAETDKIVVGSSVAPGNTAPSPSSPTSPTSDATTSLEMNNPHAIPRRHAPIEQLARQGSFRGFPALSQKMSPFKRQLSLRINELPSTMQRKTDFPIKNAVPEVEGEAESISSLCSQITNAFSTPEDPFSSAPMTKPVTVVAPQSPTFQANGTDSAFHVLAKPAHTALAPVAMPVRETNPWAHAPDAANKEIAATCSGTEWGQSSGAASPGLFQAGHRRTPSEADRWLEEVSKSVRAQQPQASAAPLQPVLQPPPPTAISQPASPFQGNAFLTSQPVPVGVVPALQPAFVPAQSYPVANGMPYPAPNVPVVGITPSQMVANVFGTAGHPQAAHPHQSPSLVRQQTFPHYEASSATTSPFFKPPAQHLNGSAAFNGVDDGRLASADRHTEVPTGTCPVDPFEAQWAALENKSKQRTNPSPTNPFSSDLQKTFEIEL

[2] = target: Human Mdm2 (residues 119-438) (human, UniProt Q00987-11 119-438); assay: SPR
Human Mdm2 (residues 119-438), sequence (Q00987 113-432): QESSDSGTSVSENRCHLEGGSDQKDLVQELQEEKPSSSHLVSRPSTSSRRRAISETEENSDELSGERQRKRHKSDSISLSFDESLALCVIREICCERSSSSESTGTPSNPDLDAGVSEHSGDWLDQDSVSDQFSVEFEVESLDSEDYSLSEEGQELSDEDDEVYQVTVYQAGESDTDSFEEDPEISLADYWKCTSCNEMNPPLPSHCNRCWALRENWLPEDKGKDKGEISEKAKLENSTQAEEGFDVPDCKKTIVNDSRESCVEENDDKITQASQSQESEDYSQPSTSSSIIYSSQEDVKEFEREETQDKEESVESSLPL

Kd [1]	Kd [2]	Binder
~14.3 nM		B1
~2.4 nM	~3.5 nM	B2

— publication doi:10.1101/2023.07.20.549453 (bioRxiv, 2023)
